From patent US7820179B2, “Pegylated PTH as PTH receptor modulators and uses thereof” (Eli Lilly and Company, priority 2006, dated 2010)
Like-named read-outs stand apart in the source and are kept apart here. No end group written: not given here.

Experiments:
[1] = test system: aged osteopenic ovariectomized rats; assay: Weekly PTH(1-34) in aged osteopenic ovariectomized rats; type: in vivo, rat
Protocol: Six-month old ovariectomized Sprague-Dawley rats are maintained on a 12 hr light/dark cycle at 22° C. with ad lib access to food (TD 89222 with 0.5% Ca and 0.4% P, Teklad, Madison, Wis.) and water. Ovariectomized rats are allowed to lose bone for 1 month, before treatment with rhPTH (1-34) for the following 3 months. The aged osteopenic ovariectomized rats are injected subcutaneously, weekly, with 0, 10 or 30 μg/kg human PTH(1-34) for 12 weeks. Sham and ovx controls are injected with the vehicle only. Lumbar vertebra are excised at necropsy and analyzed by micro-CT (Stratec), and then prepared for biomechanical testing. Strength in Newtons, (N), is evaluated by loading vertebra specimens to failure. Significance with respect to ovx vehicle controls is indicated by * in Table 7 below (Fishers PLSD, P<0.05).

[2] = test system: aged osteopenic ovariectomized rats; details: 5 μg/kg/d, aged osteopenic ovariectomized rat model, literature; cited from earlier work
[3] = 5 μg/kg/d (1 nmol/kg/d); cited from earlier work
[4] = test system: aged osteopenic ovariectomized rats; assay: Aged osteopenic ovariectomized rats: vertebral BMD/BMC, bone biomechanical strength, serum calcium; type: in vivo, rat; details: for Hypercalcemic Dose/Femoral Neck Strength Dose / Hypercalcemic Dose/Midshaft Strength Dose / Hypercalcemic Dose/Vertebral BMC Dose / Hypercalcemic Dose/Vertebral BMD Dose / Hypercalcemic Dose/Vertebral Strength Dose: derived from Table 3; for Vertebral BMC Dose: dose at which Sham level of vertebral BMC is achieved; for Vertebral BMD Dose: dose at which Sham level of vertebral BMD is achieved, s.c. every 6 or 7 days for two months; for Fem Neck Strength Dose: dose at which femoral neck strength comparable to sham vehicle control and positive control is achieved; for Midshaft Strength Dose: dose at which midshaft strength comparable to sham vehicle control and positive control is achieved; for Vertebral Strength Dose: dose at which vertebral strength comparable to sham and positive control is achieved; for Hypercalcemia Dose: sera 24 hours after administration, > means highest dose tested, not reached
Protocol: Hypercalcemia is defined herein as the upper 97.5 percentile serum calcium value of normal ovariectomized vehicle controls for the animal type used, using clinical chemistry data and sera collected from cardiac puncture (International Federation of Clinical Chemistry, H E Solberg in Tietz Fundamentals of Clinical Chemistry, 5th edition, Burtis C A and Ashwood E R, editors, 2001, pp 251-261). The value reflecting the 97.5 percentile is 11.2 mg of calcium per dL of serum from ovx vehicle control. The “Hypercalcemic Dose”, i.e., the dose at which hypercalcemia is observed 24 hours after injection of the test compound using clinical chemistry data and sera collected from cardiac puncture, is determined by interpolation, using regression analysis to fit the calcemic dose response observed 24 hours after administering the compound to ovariectomized rats.
Female Sprague-Dawley rats about 6 months of age are ovariectomized, except for sham controls, and maintained on a 12 hour light/dark cycle at 22° C. with ad lib access to food (TD 89222 with 0.5% Ca and 0.4% P, Teklad, Madison, Wis.) and water. Ovariectomized (Ovx) rats are allowed to lose bone for one month before treatment with compounds of the invention for two additional months. The compound to be tested is subcutaneously administered at various doses (as indicated in Table 3 below) in a vehicle of 20 mM NaH2PO4 in 0.9% NaCl, 3 mg/ml mannitol, pH 5, every 6 or 7 days for two months. Sham and Ovx controls are treated with the vehicle only (“sham vehicle control” and “ovx vehicle control”). Sera are then collected by cardiac puncture under isoflurane anesthesia at necropsy, and analyzed using a clinical chemistry analyzer. Lumbar vertebra L4-6 and left femora are removed, cleaned of soft-tissue and stored in 50% ethanol/saline at 4° C. At room temperature, L-5 in 50% EtOH/saline are wrapped in Parafilm and centered with respect to the QCT gantry (Research M, Stratec). A coronal scout scan of the L-5 vertebra is generated first in 2D before 3D analysis. QCT parameters are measured including BMD (mg/cc), BMC (mg), and cross-sectional area (mm^2). Lumbar vertebra L-5, femoral midshaft, and proximal femur are then prepared for biomechanical testing. Strength (N) is evaluated by loading the specimens to failure as described previously (Sato, et al., Endocrinology, […]:4330-4337, 1997).
Pegylated compounds of the invention are evaluated in this assay relative to a positive control of 3-5 μg/kg/d PTH(1-38). PTH(1-34) and PTH(1-38) are found to be indistinguishable in terms of skeletal efficacy or calcemic effects in osteopenic ovariectomized rats. It has been previously shown that rats administered 5 μg/kg/d (1 nmol/kg/d) PTH(1-34) have a systemic exposure that is about 3 times that of PTH(1-34) (i.e., FORTEO™) in humans (Tashjian and Chabner, J. Bone Miner Res, 17:1151-1161, 2002; Tashjian and Gagel, J. Bone Miner Res, 21:354-365, 2006). […] This is confirmed for PTH(1-38) in this model with a dosing of 3-5 μg/kg/d.

[5] = biological target: T1, PTHR1 (PTH Receptor 1) (Homo sapiens, UniProt Q03431); assay: PTH receptor internalization in HEK 293 cells transfected with PTHR-emGFP; type: cell-based; details: 100 nM
T1 construct: host or cells: HEK 293 cells
T1 sequence (Q03431 27-593): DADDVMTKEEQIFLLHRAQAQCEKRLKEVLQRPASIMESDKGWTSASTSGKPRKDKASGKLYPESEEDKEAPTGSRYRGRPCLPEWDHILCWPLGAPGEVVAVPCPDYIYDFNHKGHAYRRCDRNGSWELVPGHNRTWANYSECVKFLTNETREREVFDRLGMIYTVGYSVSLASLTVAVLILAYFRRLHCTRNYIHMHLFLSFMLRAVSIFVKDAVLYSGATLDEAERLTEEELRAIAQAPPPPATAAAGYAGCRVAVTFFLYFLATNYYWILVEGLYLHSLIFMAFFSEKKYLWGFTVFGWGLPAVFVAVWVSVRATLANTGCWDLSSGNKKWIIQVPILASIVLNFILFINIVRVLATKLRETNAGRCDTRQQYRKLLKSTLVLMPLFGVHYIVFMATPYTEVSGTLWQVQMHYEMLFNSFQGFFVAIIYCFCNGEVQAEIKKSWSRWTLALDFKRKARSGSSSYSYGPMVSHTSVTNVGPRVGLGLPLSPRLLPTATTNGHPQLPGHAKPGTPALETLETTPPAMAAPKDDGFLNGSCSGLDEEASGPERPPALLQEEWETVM
Protocol: The kinetics of PTHR1 (PTH Receptor 1) internalization for compounds of the invention are determined following ligand binding to membrane receptors. HEK 293 cells are transfected with PTHR-emGFP plasmid (Invitrogen).
The cells are seeded at 7,000 cells/well, 100 μL/well into clear bottomed, black, 96 well plate coated with poly-D lysine. 24 hours after being seeded into the 96 well plate, the cells are dosed with 10 μL of a compound to be tested, at final concentrations of 100 nM at staggered time points from 0 minutes to 3 hours. Media is aspirated at end point of dosing. Cells are fixed with 100 μL Prefer (Anatech, Battle Creek, Mich.) for 30 minutes. Prefer is aspirated from the cells, and cells are washed three times with 100 μL 1×PBS. Cells are stained with 100 μL diluted Hoechst nuclear stain (diluted in 1×PBS) for 30 minutes. Hoechst stain is aspirated and replaced with 1×PBS. Plates are stored in the dark at 4° C. until scanning. Cells are scanned within 48 hours using a Cellomics® ArrayScan. Representative data from various timepoints, set forth as percent of vehicle only control (baseline=100%), are presented in Table 8.

[6] = test system: aged osteopenic ovariectomized rats; assay: Direct comparison of 2 kD and 5 kD pegylated SEQ ID NO: 1 in aged osteopenic ovariectomized rats; type: in vivo, rat; details: for Serum Calcium: 24 hours after dosing
From the text: A compound of the invention with SEQ ID NO: 1, wherein the mPEG to which it is conjugated is a 2 kD mPEG, is directly compared to a compound of the invention with SEQ ID NO: 1, wherein the mPEG to which it is conjugated is a 5 kD mPEG. Aged osteopenic ovariectomized rats are permitted to lose bone for one month before dosing (nmol/kg as in Table 5 and 6) every 6 days with vehicle alone, or the 2 kD pegylated SEQ ID NO: 1 compound or the 5 kD pegylated SEQ ID NO: 1 compound for 8 weeks.

[7] = up to 30 ug/kg (7 nmol/kg), 12 weeks of treatment
[8] = 11 nmol/kg every 6 days for 8 weeks
[9] = 32 nmol/kg every 6 days for 8 weeks
[10] = 110 nmol/kg every 6 days for 8 weeks

| Molecule | PTHR1 internalization, percent of vehicle only control (baseline=100%) ([5]; 20 min) [%] | PTHR1 internalization, percent of vehicle only control (baseline=100%) ([5]; 40 min) [%] | PTHR1 internalization, percent of vehicle only control (baseline=100%) ([5]; 60 min) [%] | PTHR1 internalization, percent of vehicle only control (baseline=100%) ([5]; 180 min) [%] | Hypercalcemic Dose/Femoral Neck Strength Dose [4] | Hypercalcemic Dose/Midshaft Strength Dose [4] | Hypercalcemic Dose/Vertebral BMC Dose [4] | Hypercalcemic Dose/Vertebral BMD Dose [4] | Hypercalcemic Dose/Vertebral Strength Dose [4] | Vertebral BMC Dose [4] [nmol/kg] | Vertebral BMD Dose [4] [nmol/kg] | Fem Neck Strength Dose [4] [nmol/kg] | Midshaft Strength Dose [4] [nmol/kg] | Vertebral Strength Dose [4] [nmol/kg] | Hypercalcemia Dose [4] [nmol/kg] | other results |
| --- | --- | --- | --- | --- | --- | --- | --- | --- | --- | --- | --- | --- | --- | --- | --- | --- |
| CC[C@H](C)[C@H](NC(=O)[C@H](CCC(=O)O)NC(=O)[C@H](CO)NC(=O)[C@@H](NC(=O)[C@@H](N)CO)C(C)C)C(=O)N[C@@H](CCC(N)=O)C(=O)N[C@@H](CC(C)C)C(=O)N[C@@H](CCSC)C(=O)N[C@@H](Cc1cnc[nH]1)C(=O)N[C@@H](CC(N)=O)C(=O)N[C@@H](CC(C)C)C(=O)NCC(=O)N[C@@H](CCCCN)C(=O)N[C@@H](Cc1cnc[nH]1)C(=O)N[C@@H](CC(C)C)C(=O)N[C@@H](CC(N)=O)C(=O)N[C@@H](CO)C(=O)N[C@@H](CCSC)C(=O)N[C@@H](CCC(=O)O)C(=O)N[C@@H](CCCN=C(N)N)C(=O)N[C@H](C(=O)N[C@@H](CCC(=O)O)C(=O)N[C@@H](Cc1c[nH]c2ccccc12)C(=O)N[C@@H](CC(C)C)C(=O)N[C@@H](CCCN=C(N)N)C(=O)N[C@@H](CCCCN)C(=O)N[C@@H](CCCCN)C(=O)N[C@@H](CC(C)C)C(=O)N[C@@H](CCC(N)=O)C(=O)N[C@@H](CC(=O)O)C(=O)N[C@H](C(=O)N[C@@H](Cc1cnc[nH]1)C(=O)N[C@@H](CC(N)=O)C(=O)N[C@@H](Cc1ccccc1)C(=O)O)C(C)C)C(C)C [PTH(1-34)] |  |  |  |  |  |  |  |  |  |  |  |  |  |  |  | Vertebral strength: Average Load to Failure ([1]; 10 ug/kg s.c. weekly for 12 weeks): 222 N; Vertebral BMD: Average BMD ([1]; 10 μg/kg s.c. weekly for 12 weeks): 534 mg/mL; Vertebral strength: Average Load to Failure ([1]; 30 ug/kg s.c. weekly for 12 weeks): 243 N; Vertebral BMD: Average BMD ([1]; 30 μg/kg s.c. weekly for 12 weeks): 529 mg/mL; Serum Calcium ([1]; approximately 24 hours after the last dose): normal; Effect on vertebral BMD relative to Ovx vehicle controls [1, 7]: no significant effect; Effect on vertebral biomechanical strength relative to Ovx vehicle controls [1, 7]: no significant effect; Restoration of vertebral BMD from Ovx to sham vehicle control levels [2]: restore vertebral BMD from Ovx to sham vehicle control levels; Systemic exposure in rats relative to PTH(1-34) (FORTEO) in humans [3]: about 3 times |
| PTH(1-38): positive control, parathyroid hormone fragment 1-38 (SVSEIQLMHNLGKHLNSMERVEWLRKKLQDVHNFVALG) [reference compound] | 166 | 177 | 224 | 175 |  |  |  |  |  |  |  |  |  |  |  | Restoration of vertebral BMD from Ovx to sham vehicle control levels ([4]; 3-5 μg/kg/d, positive control): confirmed |
| SEQ ID NO: 1 but unpegylated and Lysine at amino acid 26: unpegylated molecule with the backbone of SEQ ID NO: 1 with a lysine residue at position 26 (SVSEIQLMHNLGRHLASMERVEWLRKLLQDVHNF-NH2) | 106 | 126 | 113 | 142 |  |  |  |  |  |  |  |  |  |  |  |  |
| SEQ ID NO: 1 with 2 kD mPEG (SVSEIQLMHNLGRHLASMERVEWLRKLLQDVHNF-NH2; not fully specified (residue 26)) |  |  |  |  | >10.0 | >3.43 | >3.43 | >1.0 | >10.0 | 32 | 110 | 11 | 32 | 11 | >110 | Hypercalcemia at the highest dose tested ([4]; aged Ovx rats): absence of hypercalcemia; Vertebral BMD [6, 8]: 590 mg/cc; Serum Calcium [6, 8]: 10.45 mg/dL; Vertebral BMD [6, 9]: 603 mg/cc; Serum Calcium [6, 9]: 10.38 mg/dL; Vertebral BMD [6, 10]: 623 mg/cc; Serum Calcium [6, 10]: 10.25 mg/dL |
| SEQ ID NO: 3 with 2 kD mPEG (PVSEIQLMHNLGRHLASMERVEWLRKLLQDVHNF-NH2; also: 2 kD mPEG, site not given here) |  |  |  |  | 8.8 | 8.8 | 8.8 | >0.9 | >0.9 | 11 | >110 | 11 | 11 | >110 | 97 |  |
